Test results taken from patent US20190309033A1 (Eli Lilly, published 2019).

T1: human GFRAL (NCBI Ref. Sequence No. NP_997293.2) expressed on HEK293 cells with human RET51 (human, UniProt Q6UXV0 19-394)
T1 sequence (looked up): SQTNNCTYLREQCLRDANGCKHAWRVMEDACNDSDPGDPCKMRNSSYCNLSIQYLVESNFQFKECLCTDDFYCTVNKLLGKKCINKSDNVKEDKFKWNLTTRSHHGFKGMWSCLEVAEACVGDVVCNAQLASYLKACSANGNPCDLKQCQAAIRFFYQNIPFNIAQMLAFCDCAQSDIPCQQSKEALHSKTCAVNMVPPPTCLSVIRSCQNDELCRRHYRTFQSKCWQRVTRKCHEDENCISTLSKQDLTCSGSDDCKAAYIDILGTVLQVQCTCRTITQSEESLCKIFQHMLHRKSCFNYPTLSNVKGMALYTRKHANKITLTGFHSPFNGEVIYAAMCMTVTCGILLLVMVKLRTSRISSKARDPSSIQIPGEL

T2: HIS-tagged human GFRAL ECD (human, UniProt Q6UXV0 20-338)
T2 construct: Produced in CHOK1 cell derivatives; also called Human GFRAL ECD (D1-D2-D3-ECD) Receptor; soluble human GFRAL extracellular domain
T2 sequence: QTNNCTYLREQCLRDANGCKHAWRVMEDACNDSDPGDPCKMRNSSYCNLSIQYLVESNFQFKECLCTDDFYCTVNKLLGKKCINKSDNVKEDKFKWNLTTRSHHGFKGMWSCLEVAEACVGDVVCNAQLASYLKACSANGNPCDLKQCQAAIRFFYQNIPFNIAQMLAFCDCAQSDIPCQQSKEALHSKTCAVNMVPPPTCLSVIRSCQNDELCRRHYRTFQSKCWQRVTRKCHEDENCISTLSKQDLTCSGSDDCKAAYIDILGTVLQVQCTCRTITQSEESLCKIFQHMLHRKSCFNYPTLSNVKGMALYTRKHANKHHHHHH

B1: Mature human GDF15 (homodimer of two compounds including SEQ ID NO: 1) (ligand)
chain: ARNGDHCPLGPGRCCRLHTVRASLEDLGWADWVLSPREVQVTMCIGACPSQFRAANMHAQIKTSLHRLKPDTVPAPCCVPASYNPMVLIQKTDTGVSLQTYDDLLAKDCHCI
B2: Compound 2 (homodimer of two compounds including SEQ ID NO: 2) (Fc fusion)
chain: EAAGGPSVFLFPPKPKDTLMISRTPEVTCVVVDVSQEDPEVQFNWYVDGVEVHNAKTKPREEQFNSTYRVVSVLTVLHQDWLNGKEYKCKVSNKGLPSSIEKTISKAKGQPREPQVYTLPPSQEEMTKNQVSLTCLVKGFYPSDIAVEWESNGQPENNYKTTPPVLDSDGSFQLESRLTVDKSRWQEGNVFSCSVMHEALHNHYTQKSLSLSLGGGGGAPAPAPAPAPAPAPAPAPAPGGGGGDHCPLGPGRCCRLHTVRASLEDLGWADWVLSPREVQVTMCIGACPSQFRAANMHAQIKTSLHRLKPDTVPAPCCVPASYNPMVLIQKTDTGVSLQTYDDLLAKDCHCI
notes: Homodimer linked by at least one interchain disulfide bond between the GDF15 portions; also called homodimer of the Fc-GDF15 Compound 1

Tests used:
[1] = molecular target: T1, human GFRAL (NCBI Ref. Sequence No. …); test: cell-based or functional assay
[2] = molecular target: T2, HIS-tagged human GFRAL ECD; test: SPR, Biacore T200, 25 C; compound captured by immobilized anti-GDF15 antibody, GFRAL ECD as analyte; 1:1 fit
Protocol: To measure human GDF15 (des-ARN SEQ ID NO:1) or Compound 2 binding to human GFRAL ECD, a Biacore T200 Instrument is used to measure the binding kinetics of human GDF15 homodimer (des-ARN SEQ ID NO:1) and Compound 2 to the GFRAL ECD. Measurements are performed at 25° C. Samples are dissolved in HBS-EP+, pH 7.4 (GE Healthcare; 10 mM HEPES pH 7.4+150 mM NaCl+3 mM EDTA+0.05% surfactant P20). Goat […] GDF15 antibody (R&D) is immobilized on the flow cells of a CM5 sensor chip using amine coupling chemistry. GDF15 samples are prepared at 25 μg/ml by dilution into running buffer.
Human GFRAL ECD samples are prepared at final concentrations of 1000, 500, 250, 125, 62.5, 31.3, 15.6, 7.8, 3.9, 2.0 and 0 (blank) nM by dilution into running buffer. The SPR experiment includes the following steps: (1) capturing GDF15 samples on separate flow cells (Fc2, Fc3 and Fc4), (2) injecting 200 μl of human GFRAL ECD over all flow cells at […], (3) dissociating for 600 sec, (4) regenerating chip surfaces with a 10 μl (30 sec) injection of glycine, pH 1.5, at […], and (5) equilibrating chip surfaces with a 10 μl (30 sec) injection of HBS-EP+ at […]. Each concentration of human GFRAL ECD is injected in duplicate.
Data are processed using standard double-referencing and fit to a 1:1 binding model using Biacore T200 Evaluation Software to determine the association rate (kₒₙ, M⁻¹s⁻¹), dissociation rate (koff, s⁻¹) and maximum response (Rmax; response units (RU)). The equilibrium dissociation constant (KD) is calculated from the relationship KD=koff/kₒₙ (M).

| Binder | EC50 of ERK1/2 phosphorylation (AlphaLISA pERK1/2) in HEK293 cells expressing human GFRAL and human RET51 [1] | Kd [2] | koff [2] | kon [2] |
| --- | --- | --- | --- | --- |
| B1 | 27.9 pM |  |  |  |
| B2 | 86.2 pM | 8.3 nM | 0.00871 s⁻¹ | 1.05e+06 M⁻¹ s⁻¹ |
